This passage reports binding signal results from US20260275311, “CRISPR NUCLEASE POLYPEPTIDES AND GENE EDITING SYSTEMS COMPRISING SUCH” (ARBOR BIOTECHNOLOGIES, INC., published 2026).

Numbering of substitutions follows the chain as printed.

What all share (experiment): cell_activity; PAM NGG; HEK293T
What all share (settings): tags: N- and C-terminal NLS

Series [1] concerns the target T1, Nuclease K D582R (D582R).
T1 chain: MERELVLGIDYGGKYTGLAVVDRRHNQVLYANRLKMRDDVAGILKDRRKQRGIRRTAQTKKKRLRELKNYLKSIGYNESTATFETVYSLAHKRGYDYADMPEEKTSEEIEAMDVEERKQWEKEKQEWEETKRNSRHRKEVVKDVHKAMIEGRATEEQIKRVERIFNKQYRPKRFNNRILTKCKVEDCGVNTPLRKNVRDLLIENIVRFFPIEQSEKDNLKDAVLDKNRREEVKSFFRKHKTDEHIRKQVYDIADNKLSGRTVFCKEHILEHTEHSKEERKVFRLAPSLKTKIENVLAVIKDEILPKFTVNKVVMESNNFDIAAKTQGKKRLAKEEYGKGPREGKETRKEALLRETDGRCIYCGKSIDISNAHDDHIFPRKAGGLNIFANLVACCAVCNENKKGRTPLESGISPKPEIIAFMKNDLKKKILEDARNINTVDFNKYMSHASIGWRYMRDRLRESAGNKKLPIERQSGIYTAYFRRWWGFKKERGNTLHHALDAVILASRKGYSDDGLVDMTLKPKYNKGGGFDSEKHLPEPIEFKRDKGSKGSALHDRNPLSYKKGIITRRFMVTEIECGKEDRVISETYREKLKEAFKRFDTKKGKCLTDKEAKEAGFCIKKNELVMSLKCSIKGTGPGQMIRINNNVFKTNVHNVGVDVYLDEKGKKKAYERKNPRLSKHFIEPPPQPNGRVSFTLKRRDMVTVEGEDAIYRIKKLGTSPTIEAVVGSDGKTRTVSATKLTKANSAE

The target of series [2] is T2, Nuclease K D46R (D46R).
T2 chain: T1 chain with D46R, R582D

In series [3] the target is T3, Nuclease K G42R (G42R).
T3 chain: T1 chain with G42R, R582D

B1: Nuclease K EMX1-T7 guide ; EMX1-T7 target (ssRNA ; dsDNA)
RNA: CUUUAGCAAGGGACUAUUCAGUUACAGUUAAGGCUCUGAAAAGAGCCUUAAUUGUAAAACGCCUAUACAGUGAAGGGAUAUACGCUUGGGUUUGUCCAGCCUGAGCCUCUAUGCCAGAAAUGGCGCCUUCAUCGUGGGUUAGGACAUUUAAAUUUAAAAACUAUUCAGCACUGUUUGCUCUUGUCAGCUUGGUGGCAGA
DNA 1: CTTTAGCAAGGGACTATTCA
DNA 2: TGAATAGTCCCTTGCTAAAG
Turning to B1, the results for the binding signal in series [1], in series [2] and in series [3] were 31.8 fold vs Nuclease K, 9.86 fold vs Nuclease K and 5.3 fold vs Nuclease K, respectively.

B2: Nuclease K AAVS1-T3 guide ; AAVS1-T3 target (ssRNA ; dsDNA)
RNA: UUGUGAGAAUGGUGCGUCCUGUUACAGUUAAGGCUCUGAAAAGAGCCUUAAUUGUAAAACGCCUAUACAGUGAAGGGAUAUACGCUUGGGUUUGUCCAGCCUGAGCCUCUAUGCCAGAAAUGGCGCCUUCAUCGUGGGUUAGGACAUUUAAAUUUAAAAACUAUUCAGCACUGUUUGCUCUUGUCAGCUUGGUGGCAGA
DNA 1: TTGTGAGAATGGTGCGTCCT
DNA 2: AGGACGCACCATTCTCACAA
Consider B2, for which the figures for the binding signal in series [1], in series [2] and in series [3] were 3.68 fold vs Nuclease K, 6.71 fold vs Nuclease K and 3.94 fold vs Nuclease K, respectively.
